Patent US20230210968A1, “RIBONUCLEOPROTEIN APPROACH TO BOOST THE STING SIGNALING FOR CANCER IMMUNOTHERAPY” (MASSACHUSETTS INSTITUTE OF TECHNOLOGY, priority 2020, published 2023)

Columns and labels:
[1] = test system: STINGΔTM-induced STING signaling in HEK293T cells; test: Interferon activity in HEK293T cells pretreated with chemical inhibitors, then cGAMP-STINGΔTM; type: cell-based, human; settings: increasing inhibitor concentrations before cGAMP-STINGΔTM treatment
Procedure: For the HEK293T cells, a reporter derivative from this cell line was first generated by transfecting pGL4.45[luc2P/ISRE/Hygro] (Promega company) and stably selected in 200 μg/ml hydromycin. The pGL4.45[luc2P/ISRE/Hygro] vector contains five copies of an interferon-stimulated response element (ISRE) that drives transcription of the luciferase reporter gene luc2P (Photinus pyralis). luc2p is a synthetically-derived luciferase sequence with humanized codon optimization that is designed for high expression and reduced anomalous transcription. The luc2P gene contains hPEST, a protein destabilization sequence, which allows luc2P protein levels to respond more quickly than those of […] to induction of transcription. […] Commercial transfection reagent TranslT-X2TM was used to help transfection (2 μg pDNA mixed with 4 μL TranslT-X2TM in 250 μL Opti-MEM media for each 6-well). […] Transfected cells were also harvested for western blotting.

MC38 cells = test: Therapeutic treatment study, MC38 colon cancer model; type: in vivo, C57BL/6 mice; settings: intratumoral, 100 μg protein and/or 2.5 μg cGAMP, days 7, 14, 21, 28, 35
Procedure: A therapeutic treatment study with an MC38 colon cancer model was then performed. […] The tumor size and survival were monitored on a schedule similar to that of the prophylactic study.

[2] = test system: intracellular trafficking of the tetrameric complex (EEA1, TBK1, Golgi apparatus, LAMP1); test: Immunocytochemistry / confocal microscopy of intracellular trafficking; type: cell-based
Procedure: Immunocytochemistry: Transfection and immune staining were performed in Millicell® EZ chamber slides (Millipore Sigma, Temecula, Calif., USA). […] Cells were imaged with an Inverted Olympus IX83 microscope equipped with a Hamamatsu ImagEM high sensitivity camera at the Swanson Biotechnology Center (MIT).

[3] = Transmission electron microscopy particle size; settings: in PBS
[4] = target: the molecule itself; test: FPLC size exclusion, cGAMP titration; self-association
[5] = target: the molecule itself; test: FPLC size exclusion with cGAMP; self-association
[6] = tetrameric complex, 6 h post-transfection

## C[C@H]1CCC/C=C/[C@@H]2C[C@H](O)C[C@H]2[C@H](O)/C=C/C(=O)O1 [BFA, brefeldin A]
[1]
  interferon activity after inhibitor pretreatment: insignificant effect

## Nc1nc2c(ncn2[C@@H]2O[C@@H]3COP(=O)(O)O[C@H]4[C@@H](O)[C@H](n5cnc6c(N)ncnc65)O[C@@H]4COP(=O)(O)O[C@@H]2[C@@H]3O)c(=O)[nH]1 [cGAMP, 2′3′ cyclic guanosine monophosphate-adenosine monophosphate]
MC38 cells
  tumor burden: significantly reduced tumor burden

## CO/C1=C\C(C)=C\[C@@H](C)[C@@H](O)[C@@H](C)C/C(C)=C/C=C/[C@H](OC)[C@@H]([C@@H](C)[C@@H](O)[C@H](C)[C@@]2(O)C[C@@H](O)[C@H](C)[C@@H](C(C)C)O2)OC1=O [BafA1, bafilomycin A1]
[1]
  interferon activity after inhibitor pretreatment: decreasing activity observed with increasing concentrations

## CCN(CC)CCCC(C)Nc1ccnc2cc(Cl)ccc12 (stereo not shown) [CQ, chloroquine]
[1]
  interferon activity after inhibitor pretreatment: increased interferon activity

## O=C(NCCCNc1nc(Nc2cccc(CN3CCOCC3)c2)ncc1C1CC1)C1CCC1 [MRT, MRT67307]
[1]
  interferon activity after inhibitor pretreatment: decrease with increasing concentrations

B1: mSTINGΔTM (mouse STING amino acids 138-378) (other)
chain: LTPAEVSAVCEEKKLNVAHGLAWSYYIGYLRLILPGLQARIRMFNQLHNNMLSGAGSRRLYILFPLDCGVPDNLSVVDPNIRFRDMLPQQNIDRAGIKNRVYSNSVYEILENGQPAGVCILEYATPLQTLFAMSQDAKAGFSREDRLEQAKLFCRTLEEILEDVPESRNNCRLIVYQEPTDGNSFSLSQEVLRHIRQEEKEEVTMNAPMTSVAPPPSVLSQEPRLLISGMDQPLPLRTDLI
notes: Runs as a dimer (~60 kDa) without cGAMP and as a tetramer (~120 kDa) with cGAMP; Entries with this molecule as both partners are self-association; also called mouse STINGΔTM; recombinant transmembrane-deficient STING
[2]; 24 h post-transfection
  co-localization with LAMP1: co-localization with Lysosomal Associated Membrane Protein 1 (LAMP1) at 24 h post-transfection
[2]; [6]
  co-localization with Early Endosome Antigen 1 (EEA1): limited co-localization
  co-localization with TBK1: co-localization of TBK1 with STINGΔTM in punctate structures
[2]; with or without the addition of BFA
  co-localization with the Golgi apparatus: no significant evidence of STINGΔTM co-localization with the Golgi apparatus
[3]
  particle diameter (TEM): ~14 nm
[4]
  binding result: binds

B2: mouse STINGΔTM Q272A/A276Q (other)
chain: LTPAEVSAVCEEKKLNVAHGLAWSYYIGYLRLILPGLQARIRMFNQLHNNMLSGAGSRRLYILFPLDCGVPDNLSVVDPNIRFRDMLPQQNIDRAGIKNRVYSNSVYEILENGQPAGVCILEYATPLQTLFAMSADAKQGFSREDRLEQAKLFCRTLEEILEDVPESRNNCRLIVYQEPTDGNSFSLSQEVLRHIRQEEKEEVTMNAPMTSVAPPPSVLSQEPRLLISGMDQPLPLRTDLI
notes: Expressed His-tagged; also called Q272A/A276Q mutant; functional double mutant at the tetramer interface
[5]
  binding result: binds

B3: mSTINGΔTM R237A-Y239A (other)
chain: LTPAEVSAVCEEKKLNVAHGLAWSYYIGYLRLILPGLQARIRMFNQLHNNMLSGAGSRRLYILFPLDCGVPDNLSVVDPNIRFRDMLPQQNIDRAGIKNAVASNSVYEILENGQPAGVCILEYATPLQTLFAMSQDAKAGFSREDRLEQAKLFCRTLEEILEDVPESRNNCRLIVYQEPTDGNSFSLSQEVLRHIRQEEKEEVTMNAPMTSVAPPPSVLSQEPRLLISGMDQPLPLRTDLI
notes: Expressed His-tagged; also called STINGΔTM R238A/Y240A; R237A/Y239A mutant STINGΔTM
[4]
  binding result: binds
